According to paper PMC5893371 (Nature medicine, 2018):
Read-outs that look alike come from different tables or passages of the source. No end group written: not given here.

Tests used:
[1] = molecular target: T1, biotinylated peptide 21 (Plasmodium falciparum, also: biotin, position not given here); assay: BLI
T1 chain: NPDPNANPNVDPNAN

[2] = molecular target: T2, PfCSP peptide 25 (Plasmodium falciparum, UniProt Q7K740, position 102 (from Pro to Val)); assay: ELISA
T2 chain: NVDPNANPNVDPNAN

[3] = molecular target: recombinant PfCSP (rPfCSP), Plasmodium falciparum circumsporozoite protein residues 21-375 (Plasmodium falciparum 3D7 (clone of …, UniProt Q7K740)); assay: ITC
[4] = molecular target: T3, PfCSP peptide 20 (Plasmodium falciparum); assay: crystal structure
T3 chain: PADGNPDPNANPNVD

[5] = molecular target: T2, PfCSP peptide 25; assay: crystal structure
[6] = molecular target: T3, PfCSP peptide 20; assay: crystal structure
[7] = molecular target: T2, PfCSP peptide 25; assay: crystal structure

B1: mAb CIS43 (antibody, V domains shown)
VH: QVQLVQSGAEVKKPGASVKVSCKASGYTFTSYAIHWVRQAPGQRLEWMGWIKAGNGNTRYSQKFQDRVTITRDTSTTTAYMELSSLRSEDTAVYYCALLTVLTPDDAFDIWGQGTMVTVSS
VL: not shown
Kd [1]: < 0.001 nM
binding result [2]: binds
KD of the first binding event [3]: 7.9 nM
KD of the second binding event [3]: 42 nM

B2: CIS43 Fab (Fab, V domains shown)
VH: B1 VH
VL: not shown
binding result [4]: binds
binding result [5]: binds
KD of the first binding event [3]: 16 nM
KD of the second binding event [3]: 250 nM

B3: mAb CIS42 (antibody, V domains shown)
VH: QVQLVQSGSELKKPGASVKVSCKTSGYTFTTYAMNWVRQAPGQGLEWMGWINTNTGNPTYAPGFTGRFVFSFDTSVSTAYLQISSLKAEDTAVYYCARVYSYGVPFDYWGQGTLVTVSS
VL: QSVLTQPASVSGSPGQSITISCTATSSNVGSFNLVSWYQHHPGKAPKLIIHEVSKRPSGASNRFSGSKSGNTASLTISGLQAEDEADYYCCSYVGSDTWVFGGGTKLTV
Kd [3]: 51 nM
stoichiometry N [3]: 7

B4: CIS42 Fab (Fab, V domains shown)
VH: B3 VH
VL: B3 VL
binding result [6]: binds
binding result [7]: binds
